Paper PMC7367873, “Dissecting the sequence determinants for dephosphorylation by the catalytic subunits of phosphatases PP1 and PP2A” (Nature Communications, 2020)

B1: SH3PXD2A (protein, UniProt Q5TCZ1 1-1133, looked up)
SH3 and PX domain-containing …: MLAYCVQDATVVDVEKRRNPSKHYVYIINVTWSDSTSQTIYRRYSKFFDLQMQLLDKFPIEGGQKDPKQRIIPFLPGKILFRRSHIRDVAVKRLKPIDEYCRALVRLPPHISQCDEVFRFFEARPEDVNPPKEDYGSSKRKSVWLSSWAESPKKDVTGADATAEPMILEQYVVVSNYKKQENSELSLQAGEVVDVIEKNESGWWFVSTSEEQGWVPATYLEAQNGTRDDSDINTSKTGEVSKRRKAHLRRLDRRWTLGGMVNRQHSREEKYVTVQPYTSQSKDEIGFEKGVTVEVIRKNLEGWWYIRYLGKEGWAPASYLKKAKDDLPTRKKNLAGPVEIIGNIMEISNLLNKKASGDKETPPAEGEGHEAPIAKKEISLPILCNASNGSAVGVPDRTVSRLAQGSPAVARIAPQRAQISSPNLRTRPPPRRESSLGFQLPKPPEPPSVEVEYYTIAEFQSCISDGISFRGGQKAEVIDKNSGGWWYVQIGEKEGWAPASYIDKRKKPNLSRRTSTLTRPKVPPPAPPSKPKEAEEGPTGASESQDSPRKLKYEEPEYDIPAFGFDSEPELSEEPVEDRASGERRPAQPHRPSPASSLQRARFKVGESSEDVALEEETIYENEGFRPYAEDTLSARGSSGDSDSPGSSSLSLTRKNSPKSGSPKSSSLLKLKAEKNAQAEMGKNHSSASFSSSITINTTCCSSSSSSSSSLSKTSGDLKPRSASDAGIRGTPKVRAKKDADANAGLTSCPRAKPSVRPKPFLNRAESQSQEKMDISTLRRQLRPTGQLRGGLKGSKSEDSELPPQTASEAPSEGSRRSSSDLITLPATTPPCPTKKEWEGPATSYMTCSAYQKVQDSEISFPAGVEVQVLEKQESGWWYVRFGELEGWAPSHYLVLDENEQPDPSGKELDTVPAKGRQNEGKSDSLEKIERRVQALNTVNQSKKATPPIPSKPPGGFGKTSGTPAVKMRNGVRQVAVRPQSVFVSPPPKDNNLSCALRRNESLTATDGLRGVRRNSSFSTARSAAAEAKGRLAERAASQGSDSPLLPAQRNSIPVSPVRPKPIEKSQFIHNNLKDVYVSIADYEGDEETAGFQEGVSMEVLERNPNGWWYCQILDGVKPFKGWVPSNYLEKKN
B2: RIN1 (protein, UniProt Q13671 1-783, looked up)
Ras and Rab interactor 1: MESPGESGAGSPGAPSPSSFTTGHLAREKPAQDPLYDVPNASGGQAGGPQRPGRVVSLRERLLLTRPVWLQLQANAAAALHMLRTEPPGTFLVRKSNTRQCQALCMRLPEASGPSFVSSHYILESPGGVSLEGSELMFPDLVQLICAYCHTRDILLLPLQLPRAIHHAATHKELEAISHLGIEFWSSSLNIKAQRGPAGGPVLPQLKARSPQELDQGTGAALCFFNPLFPGDLGPTKREKFKRSFKVRVSTETSSPLSPPAVPPPPVPVLPGAVPSQTERLPPCQLLRRESSVGYRVPAGSGPSLPPMPSLQEVDCGSPSSSEEEGVPGSRGSPATSPHLGRRRPLLRSMSAAFCSLLAPERQVGRAAAALMQDRHTAAGQLVQDLLTQVRAGPEPQELQGIRQALSRARAMLSAELGPEKLLSPKRLEHVLEKSLHCSVLKPLRPILAARLRRRLAADGSLGRLAEGLRLARAQGPGAFGSHLSLPSPVELEQVRQKLLQLLRTYSPSAQVKRLLQACKLLYMALRTQEGEGAGADEFLPLLSLVLAHCDLPELLLEAEYMSELLEPSLLTGEGGYYLTSLSASLALLSGLGQAHTLPLSPVQELRRSLSLWEQRRLPATHCFQHLLRVAYQDPSSGCTSKTLAVPPEASIATLNQLCATKFRVTQPNTFGLFLYKEQGYHRLPPGALAHRLPTTGYLVYRRAEWPETQGAVTEEEGSGQSEARSRGEEQGCQGDGDAGVKASPRDIREQSETTAEGGQGQAQEGPAQPGEPEAEGSRAAEE
B3: LMNB1 (protein, UniProt P20700 2-583, looked up)
Lamin-B1: ATATPVPPRMGSRAGGPTTPLSPTRLSRLQEKEELRELNDRLAVYIDKVRSLETENSALQLQVTEREEVRGRELTGLKALYETELADARRALDDTARERAKLQIELGKCKAEHDQLLLNYAKKESDLNGAQIKLREYEAALNSKDAALATALGDKKSLEGDLEDLKDQIAQLEASLAAAKKQLADETLLKVDLENRCQSLTEDLEFRKSMYEEEINETRRKHETRLVEVDSGRQIEYEYKLAQALHEMREQHDAQVRLYKEELEQTYHAKLENARLSSEMNTSTVNSAREELMESRMRIESLSSQLSNLQKESRACLERIQELEDLLAKEKDNSRRMLTDKEREMAEIRDQMQQQLNDYEQLLDVKLALDMEISAYRKLLEGEEERLKLSPSPSSRVTVSRASSSRSVRTTRGKRKRVDVEESEASSSVSISHSASATGNVCIEEIDVDGKFIRLKNTSEQDQPMGGWEMIRKIGDTSVSYKYTSRYVLKAGQTVTIWAANAGVTASPPTDLIWKNQNSWGTGEDVKVILKNSQGEEVAQRSTVFKTTIPEEEEEEEEAAGVVVEEELFHQQGTPRASNRSC
B4: ABLIM1 (protein, UniProt O14639 1-778, looked up)
Actin-binding LIM protein 1: MPAFLGLKCLGKLCSSEKSKVTSSERTSARGSNRKRLIVEDRRVSGTSFTAHRRATITHLLYLCPKDYCPRGRVCNSVDPFVAHPQDPHHPSEKPVIHCHKCGEPCKGEVLRVQTKHFHIKCFTCKVCGCDLAQGGFFIKNGEYLCTLDYQRMYGTRCHGCGEFVEGEVVTALGKTYHPNCFACTICKRPFPPGDRVTFNGRDCLCQLCAQPMSSSPKETTFSSNCAGCGRDIKNGQALLALDKQWHLGCFKCKSCGKVLTGEYISKDGAPYCEKDYQGLFGVKCEACHQFITGKVLEAGDKHYHPSCARCSRCNQMFTEGEEMYLQGSTVWHPDCKQSTKTEEKLRPTRTSSESIYSRPGSSIPGSPGHTIYAKVDNEILDYKDLAAIPKVKAIYDIERPDLITYEPFYTSGYDDKQERQSLGESPRTLSPTPSAEGYQDVRDRMIHRSTSQGSINSPVYSRHSYTPTTSRSPQHFHRPGNEPSSGRNSPLPYRPDSRPLTPTYAQAPKHFHVPDQGINIYRKPPIYKQHAALAAQSKSSEDIIKFSKFPAAQAPDPSETPKIETDHWPGPPSFAVVGPDMKRRSSGREEDDEELLRRRQLQEEQLMKLNSGLGQLILKEEMEKESRERSSLLASRYDSPINSASHIPSSKTASLPGYGRNGLHRPVSTDFAQYNSYGDVSGGVRDYQTLPDGHMPAMRMDRGVSMPNMLEPKIFPYEMLMVTNRGRNKILREVDRTRLERHLAPEVFREIFGMSIQEFDRLPLWRRNDMKKKAKLF
B5: NOP2 (protein, UniProt P46087 1-812, looked up)
28S rRNA …: MGRKLDPTKEKRGPGRKARKQKGAETELVRFLPAVSDENSKRLSSRARKRAAKRRLGSVEAPKTNKSPEAKPLPGKLPKGISAGAVQTAGKKGPQSLFNAPRGKKRPAPGSDEEEEEEDSEEDGMVNHGDLWGSEDDADTVDDYGADSNSEDEEEGEALLPIERAARKQKAREAAAGIQWSEEETEDEEEEKEVTPESGPPKVEEADGGLQINVDEEPFVLPPAGEMEQDAQAPDLQRVHKRIQDIVGILRDFGAQREEGRSRSEYLNRLKKDLAIYYSYGDFLLGKLMDLFPLSELVEFLEANEVPRPVTLRTNTLKTRRRDLAQALINRGVNLDPLGKWSKTGLVVYDSSVPIGATPEYLAGHYMLQGASSMLPVMALAPQEHERILDMCCAPGGKTSYMAQLMKNTGVILANDANAERLKSVVGNLHRLGVTNTIISHYDGRQFPKVVGGFDRVLLDAPCSGTGVISKDPAVKTNKDEKDILRCAHLQKELLLSAIDSVNATSKTGGYLVYCTCSITVEENEWVVDYALKKRNVRLVPTGLDFGQEGFTRFRERRFHPSLRSTRRFYPHTHNMDGFFIAKFKKFSNSIPQSQTGNSETATPTNVDLPQVIPKSENSSQPAKKAKGAAKTKQQLQKQQHPKKASFQKLNGISKGADSELSTVPSVTKTQASSSFQDSSQPAGKAEGIREPKVTGKLKQRSPKLQSSKKVAFLRQNAPPKGTDTQTPAVLSPSKTQATLKPKDHHQPLGRAKGVEKQQLPEQPFEKAAFQKQNDTPKGPQPPTVSPIRSSRPPPAKRKKSQSRGNSQLLLS
B6: ZAK (protein, UniProt Q9NYL2 2-800, looked up)
Mitogen-activated protein …: SSLGASFVQIKFDDLQFFENCGGGSFGSVYRAKWISQDKEVAVKKLLKIEKEAEILSVLSHRNIIQFYGVILEPPNYGIVTEYASLGSLYDYINSNRSEEMDMDHIMTWATDVAKGMHYLHMEAPVKVIHRDLKSRNVVIAADGVLKICDFGASRFHNHTTHMSLVGTFPWMAPEVIQSLPVSETCDTYSYGVVLWEMLTREVPFKGLEGLQVAWLVVEKNERLTIPSSCPRSFAELLHQCWEADAKKRPSFKQIISILESMSNDTSLPDKCNSFLHNKAEWRCEIEATLERLKKLERDLSFKEQELKERERRLKMWEQKLTEQSNTPLLPSFEIGAWTEDDVYCWVQQLVRKGDSSAEMSVYASLFKENNITGKRLLLLEEEDLKDMGIVSKGHIIHFKSAIEKLTHDYINLFHFPPLIKDSGGEPEENEEKIVNLELVFGFHLKPGTGPQDCKWKMYMEMDGDEIAITYIKDVTFNTNLPDAEILKMTKPPFVMEKWIVGIAKSQTVECTVTYESDVRTPKSTKHVHSIQWSRTKPQDEVKAVQLAIQTLFTNSDGNPGSRSDSSADCQWLDTLRMRQIASNTSLQRSQSNPILGSPFFSHFDGQDSYAAAVRRPQVPIKYQQITPVNQSRSSSPTQYGLTKNFSSLHLNSRDSGFSSGNTDTSSERGRYSDRSRNKYGRGSISLNSSPRGRYSGKSQHSTPSRGRYPGKFYRVSQSALNPHQSPDFKRSPRDLHQPNTIPGMPLHPETDSRASEEDSKVSEGGWTKVEYRKKPHRPSPAKTNKERARGDHRGWRNF
B7: HNRNPA0 (protein, UniProt Q13151 1-305, looked up)
Heterogeneous nuclear …: MENSQLCKLFIGGLNVQTSESGLRGHFEAFGTLTDCVVVVNPQTKRSRCFGFVTYSNVEEADAAMAASPHAVDGNTVELKRAVSREDSARPGAHAKVKKLFVGGLKGDVAEGDLIEHFSQFGTVEKAEIIADKQSGKKRGFGFVYFQNHDAADKAAVVKFHPIQGHRVEVKKAVPKEDIYSGGGGGGSRSSRGGRGGRGRGGGRDQNGLSKGGGGGYNSYGGYGGGGGGGYNAYGGGGGGSSYGGSDYGNGFGGFGSYSQHQSSYGPMKSGGGGGGGGSSWGGRSNSGPYRGGYGGGGGYGGSSF

These molecules were tested on GFP-14-3-3β and its binding proteins (assay: GFP-14-3-3β co-IP with LC-MS/MS label-free quantification, untreated versus PP1c-treated). Details: PP1 vs untreated; LFQ intensities, replicates 1-3.
Set-up: species or system human

Molecule	Difference (log2), PP1 vs untreated [log2]
B1	-1.555
B2	-1.475
B3	-1.41
B4	-1.4799
B5	-1.5353
B6	-1.506
B7	-1.439

What follows are molecules tested on GFP-14-3-3β (assay: GFP-14-3-3β co-IP with LC-MS/MS, untreated GFP-14-3-3β versus GFP control (14-3-3 interactome)). Details: untreated vs GFP; LFQ intensities, replicates 1-3.
Type: binding, human

Molecule	Difference (log2), untreated vs GFP [log2]
B1	3.934
B2	6.141
B3	2.359
B4	3.166
B5	2.385
B6	2.661
B7	3.698
